{
  "source": "paper PMC6563307",
  "key": {"[1]": {"target": "Vip3Ab1-740 processed by midgut fluid (~65 kDa and ~20 kDa products that remain associated) (Bacillus thuringiensis)", "experiment": "SEC; analytical size exclusion chromatography after overnight digestion at pH 10.0, 30 °C, with S. frugiperda or S. eridania midgut fluid; 6 µL injected at 150 µg/mL; size estimated from molecular weight standards"}, "[2]": {"target": "Vip3Ab1 (full length, not digested) (Bacillus thuringiensis)", "experiment": "SEC; analytical size exclusion chromatography of the full-length protein incubated overnight without midgut fluid, pH 10.0; 6 µL injected at 150 µg/mL; size estimated from molecular weight standards"}, "[3]": {"target": "Vip3Ab1 processed by midgut fluid (~65 kDa and ~20 kDa products that remain associated) (Bacillus thuringiensis)", "experiment": "SEC; analytical size exclusion chromatography after overnight digestion at pH 10.0, 30 °C, with S. frugiperda or S. eridania midgut fluid; 6 µL injected at 150 µg/mL; size estimated from molecular weight standards"}, "[4]": {"target": "Vip3Ab1-740 (full length, not digested) (Bacillus thuringiensis)", "experiment": "SEC; analytical size exclusion chromatography of the full-length protein incubated overnight without midgut fluid, pH 10.0; 6 µL injected at 150 µg/mL; size estimated from molecular weight standards"}},
  "data": [
    {"substance": "Vip3Ab1-740 processed by midgut fluid (~65 kDa and ~20 kDa products that remain associated) (complex)", "values": [
      {"measurement": "stoichiometry N", "setting": "[1]", "value": 4}
    ]},
    {"substance": "Vip3Ab1 (full length, not digested) (natural protein)", "values": [
      {"measurement": "stoichiometry N", "setting": "[2]", "value": 4}
    ]},
    {"substance": "Vip3Ab1 processed by midgut fluid (~65 kDa and ~20 kDa products that remain associated) (complex)", "values": [
      {"measurement": "stoichiometry N", "setting": "[3]", "value": 4}
    ]},
    {"substance": "Vip3Ab1-740 (full length, not digested)", "values": [
      {"measurement": "stoichiometry N", "setting": "[4]", "value": 4}
    ]}
  ]
}
